Measured values: US20250289849A1, “PEPTIDE TO TREAT ALPHA-SYNUCLEIN AMYLOID BASED DISORDERS” (COUNCIL OF SCIENTIFIC & INDUSTRIAL RESEARCH, priority 2022, published 2025)
Where no end group is shown, it is not given here.

Target: T1, human wild-type α-synuclein (Homo sapiens, UniProt P37840)
T1 construct: made in house; host or cells: E. coli Rosetta(DE3), pT7-7 based expression vector
Assay: In vitro fibrillation assay (Thioflavin T fluorescence)
Format: biochemical
Conditions: for inhibition of α-synuclein fibrillation (reduction in ThT fluorescence, in words): FIG. 3, α-synuclein 400 μM, equimolar peptide, 37° C., observed upto 6 hr; for increase in α-synuclein fibrillation (fluorescence intensity), compared to penetratin: FIG. 4A, zoomed Y-axis of FIG. 3 data; for normalized ratio of ThT fluorescence amplitude at 5 h versus 0 h, compared with SEQ.ID.-4: FIG. 4B
Experimental: FIG. 1. […] The α-synuclein fibrillation was monitored using ThioflavinT (ThT), a dye that specifically binds to amyloids. The binding of ThT results in increase of its fluorescence intensity at 482 nm. Purified α-synuclein (400 μM) was incubated at 37° C. with shaking in the presence and absence of equimolar concentration of indicated peptides. Amyloid formation was determined by monitoring ThT fluorescence at different time intervals.
FIG. 3. […] The α-synuclein fibrillation was monitored using ThioflavinT (ThT) dye, which specifically binds to amyloids, with its subsequent increase in fluorescence intensity recorded at 482 nm. The purified α-synuclein (400 μM) was incubated at 37° C. with shaking, in the presence and absence of equimolar concentration of indicated peptides. Amyloid formation was determined by monitoring ThT fluorescence at different time intervals.
FIG. 4A. The inhibition of α-synuclein fibrillation in the presence of different peptides as indicated by SEQ.IDs. The data is same as in FIG. 3A except that only the enhanced (zoomed) Y-axis for α-synuclein fibrillation in the presence of peptides is shown for clarity.
FIG. 4B. The ratio of the amplitude at 5 h versus 0 h for each of the curve was calculated and normalized.
Thioflavin T (ThT) (4 mM) was added to 400 μM of purified α-synuclein with and without Cell penetrating peptides at equimolar concentration in a 96 microwell plate. The plate was incubated at 37° C. with a shaking speed of 900 rpm in linear mode in a multimode plate reader (TECAN infinite M200 PRO). Fluorescence kinetics was measured after every 15 minutes with emission wavelength of 482 nm upon excitation at 442 nm. Each experiment was repeated at least three times.

inhibition of α-synuclein fibrillation (reduction in ThT fluorescence, in words)	Substance	increase in α-synuclein fibrillation (fluorescence intensity), compared to penetratin	normalized ratio of ThT fluorescence amplitude at 5 h versus 0 h, compared with SEQ.ID.-4
inhibits α-synuclein fibrillation	SEQ.ID.-8: shorter and cyclized derivative of SEQ.ID.-4 with an additional mutation (CKIWFANRRMKC; not fully specified (bridges); also: cyclized, mode not given here)	did not allow increase in α-synuclein fibrillation	significantly better inhibitor of fibrillation than of SEQ.ID.-4
inhibits α-synuclein fibrillation	SEQ.ID.-6: Cyclic derivative synthesized by introducing Cys residue at N-terminal and C-terminal of SEQ.ID.-4 sequence (CRQIKIWFQNRRMKWKKC; not fully specified (bridges); cysteine pairing not given here)		
inhibits α-synuclein fibrillation	SEQ.ID.-7: shorter truncated version of SEQ.ID.-4, further cyclized (CKIWFQNRRMKC; not fully specified (bridges); also: cyclized, mode not given here)	did not allow increase in α-synuclein fibrillation	significantly better inhibitor of fibrillation than of SEQ.ID.-4
